Reference: IntAct's records for PubMed 29039417

B1: BBSome complex member BBS4 (Homo sapiens), Q96RK4 (parent)
chain: MAEERVATRTQFPVSTESQKPRQKKAPEFPILEKQNWLIHLHYIRKDYEACKAVIKEQLQETQGLCEYAIYVQALIFRLEGNIQESLELFQTCAVLSPQSADNLKQVARSLFLLGKHKAAIEVYNEAAKLNQKDWEISHNLGVCYIYLKQFNKAQDQLHNALNLNRHDLTYIMLGKIHLLEGDLDKAIEVYKKAVEFSPENTELLTTLGLLYLQLGIYQKAFEHLGNALTYDPTNYKAILAAGSMMQTHGDFDVALTKYRVVACAVPESPPLWNNIGMCFFGKKKYVAAISCLKRANYLAPFDWKILYNLGLVHLTMQQYASAFHFLSAAINFQPKMGELYMLLAVALTNLEDIENAKRAYAEAVHLDKCNPLVNLNYAVLLYNQGEKKNALAQYQEMEKKVSLLKDNSSLEFDSEMVEMAQKLGAALQVGEALVWTKPVKDPKSKHQTTSTSKPASFQQPLGSNQALGQAMSSAAAYRTLPSGAGGTSQFTKPPSLPLEPEPAVESSPTETSEQIREK
partner: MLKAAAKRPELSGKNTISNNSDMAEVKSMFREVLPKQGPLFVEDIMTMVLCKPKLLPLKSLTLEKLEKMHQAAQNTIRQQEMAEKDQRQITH

Variants of: B1
Conditions: with bbip1_human BBIP1, A8MTZ0

Row | effect of a mutation on the interaction | Variant
1 | with no effect | A485K
2 | with no effect | A485E
3 | with no effect | A477K
4 | with no effect | A477E
5 | with no effect | A475E
6 | with no effect | A475K
7 | with no effect | N465A
8 | with no effect | N465K
9 | with no effect | N465E
10 | with no effect | S453K
11 | with no effect | Q470A
12 | with no effect | Q470K
13 | with no effect | Q470E
14 | with no effect | Q459K
15 | with no effect | Q459A
16 | with no effect | Q459E
17 | with no effect | L462K
18 | with no effect | L462A
19 | with no effect | L462E
20 | with no effect | S483K
21 | with no effect | S483E
22 | with no effect | S483A
23 | with no effect | P455K
24 | with no effect | P455E

Row | effect of a mutation on the interaction | Variant
25 | with no effect | P455A
26 | with no effect | P482A
27 | with no effect | P482E
28 | with no effect | P482K
29 | with no effect | S474E
30 | with no effect | S474A
31 | with no effect | S474K
32 | with no effect | S464A
33 | with no effect | S464K
34 | with no effect | S464E
35 | with no effect | G484K
36 | with no effect | G484E
37 | with no effect | G484A
38 | with no effect | A467K
39 | with no effect | A467E
40 | with no effect | Q466K
41 | with no effect | Q466E
42 | with no effect | Q466A
43 | with no effect | L481A
44 | with no effect | L481K
45 | with no effect | L481E
46 | with no effect | T480K
47 | with no effect | T480E
48 | with no effect | T480A

Row | effect of a mutation on the interaction | Variant
49 | with no effect | L468E
50 | with no effect | L468A
51 | with no effect | L468K
52 | with no effect | A456E
53 | with no effect | A456K
54 | with no effect | G463K
55 | with no effect | G463A
56 | with no effect | G463E
57 | with no effect | R479E
58 | with no effect | R479A
59 | with no effect | R479K
60 | with no effect | A476K
61 | with no effect | A476E
62 | with no effect | K454E
63 | with no effect | K454A
64 | with no effect | A471E
65 | with no effect | A471K
66 | with no effect | G487E
67 | with no effect | G487A
68 | with no effect | Y478K
69 | with no effect | Y478A
70 | with no effect | Y478E
71 | with no effect | G469K
72 | with no effect | G469A

Row | effect of a mutation on the interaction | Variant
73 | with no effect | G469E
74 | with no effect | Q460K
75 | with no effect | Q460A
76 | with no effect | Q460E
77 | with no effect | P461K
78 | with no effect | P461A
79 | with no effect | P461E
80 | with no effect | F458A
81 | with no effect | F458E
82 | with no effect | F458K
83 | with no effect | G486E
84 | with no effect | G486K
85 | with no effect | G486A
86 | with no effect | S473E
87 | with no effect | S473A
88 | with no effect | S473K
89 | with no effect | S457A
90 | with no effect | S457E
91 | with no effect | S457K
92 | with no effect | M472K
93 | with no effect | M472E
94 | with no effect | M472A
